For this assay, the target named is T1, tetanus toxoid (UniProt P04958 2-1315).
T1 construct: also called TT
The experiment in a line: SPR, antibody captured on protein A, H1 then TT.

The record followed here is patent US20200325220A1 (INSTITUTE FOR RESEARCH IN BIOMEDICINE, published 2020).

T1 sequence (P04958 2-457 limits assumed, chain 1 of 2): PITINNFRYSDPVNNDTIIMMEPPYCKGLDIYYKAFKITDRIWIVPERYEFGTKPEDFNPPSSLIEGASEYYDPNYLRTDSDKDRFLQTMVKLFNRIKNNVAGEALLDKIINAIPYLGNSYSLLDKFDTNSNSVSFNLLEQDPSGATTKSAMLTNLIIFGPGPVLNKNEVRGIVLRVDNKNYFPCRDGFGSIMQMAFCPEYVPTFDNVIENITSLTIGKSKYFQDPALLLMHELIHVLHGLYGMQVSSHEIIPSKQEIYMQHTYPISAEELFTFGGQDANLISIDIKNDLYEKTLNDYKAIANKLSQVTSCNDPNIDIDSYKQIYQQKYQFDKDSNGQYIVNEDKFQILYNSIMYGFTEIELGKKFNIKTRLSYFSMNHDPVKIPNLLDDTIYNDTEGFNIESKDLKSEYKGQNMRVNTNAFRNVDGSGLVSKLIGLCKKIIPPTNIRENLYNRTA
T1 sequence (P04958 458-1315 limits assumed, chain 2 of 2): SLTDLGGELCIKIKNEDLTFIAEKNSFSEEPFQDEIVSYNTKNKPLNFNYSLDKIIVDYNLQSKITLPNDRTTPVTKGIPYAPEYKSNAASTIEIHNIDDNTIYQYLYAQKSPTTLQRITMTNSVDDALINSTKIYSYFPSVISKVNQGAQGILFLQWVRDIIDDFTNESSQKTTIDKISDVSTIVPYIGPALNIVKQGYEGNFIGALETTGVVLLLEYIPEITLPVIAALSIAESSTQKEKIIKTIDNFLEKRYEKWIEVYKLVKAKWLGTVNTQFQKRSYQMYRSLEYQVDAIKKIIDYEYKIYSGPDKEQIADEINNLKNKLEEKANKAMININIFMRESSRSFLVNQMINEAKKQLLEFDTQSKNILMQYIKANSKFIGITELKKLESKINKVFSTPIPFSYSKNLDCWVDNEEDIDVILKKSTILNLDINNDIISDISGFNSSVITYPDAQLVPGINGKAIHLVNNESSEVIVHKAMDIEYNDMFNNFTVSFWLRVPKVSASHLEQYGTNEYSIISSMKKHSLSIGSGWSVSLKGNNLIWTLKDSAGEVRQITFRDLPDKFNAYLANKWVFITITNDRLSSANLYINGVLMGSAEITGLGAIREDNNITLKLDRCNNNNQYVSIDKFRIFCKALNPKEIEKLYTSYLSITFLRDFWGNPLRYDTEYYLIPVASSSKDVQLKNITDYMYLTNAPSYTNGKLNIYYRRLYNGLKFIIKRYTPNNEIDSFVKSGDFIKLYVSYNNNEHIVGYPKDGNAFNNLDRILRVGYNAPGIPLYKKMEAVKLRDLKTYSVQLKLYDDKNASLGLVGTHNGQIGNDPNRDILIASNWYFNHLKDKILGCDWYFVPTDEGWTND

B1: FI174 (antibody, V domains shown)
VH: QVQLVQSGAEVRKPGSSVKVSCKTSGGIIRKYALSWVRQAPGQGLEWMGGIIAIFGTTNYAQKFQGRVTINADESTSTVYLELSSLTSEDTAIYYCAGSATYYESRFDYWGQGTLVTVSS
VL: EIVLTQSPGTLSLSPGARATLSCRASQSVSSSSLAWYQQKPGQAPRLLIYDASSRATGIPDRFSGSGSGTDFTLTISRLEPEDFAVYYCHQYGDSRKTFGQGTKVEIKR
notes: also called F1174; FI74
For the molecule B1, the binding result is given as “no binding (tested: tetanus toxoid 50 nM)”.
